# Changes are numbered by the printed parent chain.
# T1: human TL1A extracellular domain with N-terminal HIS and FLAG tag (human, UniProt O95150 72-251)
# T1 construct: the whole entry is named; also called TNFSF15
# T1 sequence: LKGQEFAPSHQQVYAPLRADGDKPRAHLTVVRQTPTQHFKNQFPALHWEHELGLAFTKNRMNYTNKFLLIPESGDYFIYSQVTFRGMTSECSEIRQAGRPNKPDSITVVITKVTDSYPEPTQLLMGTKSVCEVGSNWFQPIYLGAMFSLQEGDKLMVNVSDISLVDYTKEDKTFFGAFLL
# T2: human TL1A extracellular domain with N-terminal HIS and FLAG tag (human, UniProt O95150 72-251)
# T2 construct: whole entry named. ~70 kDa fraction purified by gel filtration
# T2 sequence: T1 sequence
# B1: 320-578 (antibody, human IgG1, name in Kabat numbering, V domains shown)
# VH: QVQLVQSGAEVKKPGASVKVSCKASGYTFTSYDINWVRQAPGQGLEWMGWYNPNSGNTGYAQKFQGRVTMTADRSTSTAYMELSSLRSEDTAVYYCAREVPETAAFEYWGQGTLVTVSS
# VL: QSVLTQPPSVSGAPGQRVTISCTSSSSDIGAGLGVHWYQQLPGTAPKLLIEGYYNRPSGVPDRFSGSKSGTSASLTITGLLPEDEGDYYCQSYDGTLSALFGGGTKLTVLG
# notes: full-length human IgG1, lambda
# B2: 320-566 (antibody, human IgG1, name in Kabat numbering, V domains shown)
# VH: B1 VH with Y51L, Y60A
# VL: B1 VL
# notes: as for B1
# B3: 320-579 (antibody, human IgG1, name in Kabat numbering, V domains shown)
# VH: B1 VH with Y51L, N52L
# VL: B1 VL
# notes: as for B1
# B4: 320-570 (antibody, human IgG1, name in Kabat numbering, V domains shown)
# VH: B1 VH with Y51L, Y60H
# VL: B1 VL
# notes: as for B1
# B5: 320-573 (antibody, human IgG1, name in Kabat numbering, V domains shown)
# VH: B1 VH with Y51L, A61Q
# VL: B1 VL
# notes: as for B1
# B6: 320-574 (antibody, human IgG1, name in Kabat numbering, V domains shown)
# VH: B1 VH with Y51L, A61D
# VL: B1 VL
# notes: as for B1
# B7: 320-577 (antibody, human IgG1, name in Kabat numbering, V domains shown)
# VH: B1 VH with Y51A
# VL: B1 VL
# notes: as for B1
# B8: 320-575 (antibody, human IgG1, name in Kabat numbering, V domains shown)
# VH: B1 VH with Y51L, A61H
# VL: B1 VL
# notes: as for B1
# B9: 320-567 (antibody, human IgG1, name in Kabat numbering, V domains shown)
# VH: B1 VH with Y51L, Y60S
# VL: B1 VL
# notes: as for B1
# B10: 320-582 (antibody, human IgG1, name in Kabat numbering, V domains shown)
# VH: B1 VH with Y51L, Y60W
# VL: B1 VL
# notes: as for B1
# B11: 320-581 (antibody, human IgG1, name in Kabat numbering, V domains shown)
# VH: B1 VH with Y51L, Y60L
# VL: B1 VL
# notes: as for B1
# B12: 320-576 (antibody, human IgG1, name in Kabat numbering, V domains shown)
# VH: B1 VH with Y51L, A61K
# VL: B1 VL
# notes: as for B1
# B13: 320-565 (antibody, human IgG1, name in Kabat numbering, V domains shown)
# VH: B1 VH with Y51L, G59Y
# VL: B1 VL
# notes: as for B1
# B14: 320-572 (antibody, human IgG1, name in Kabat numbering, V domains shown)
# VH: B1 VH with Y51L, A61S
# VL: B1 VL
# notes: as for B1
# B15: 320-569 (antibody, human IgG1, name in Kabat numbering, V domains shown)
# VH: B1 VH with Y51L, Y60D
# VL: B1 VL
# notes: as for B1
# B16: 320-568 (antibody, human IgG1, name in Kabat numbering, V domains shown)
# VH: B1 VH with Y51L, Y60Q
# VL: B1 VL
# notes: as for B1
# B17: 320-571 (antibody, human IgG1, name in Kabat numbering, V domains shown)
# VH: B1 VH with Y51L, Y60K
# VL: B1 VL
# notes: as for B1
# B18: 320-580 (antibody, human IgG1, name in Kabat numbering, V domains shown)
# VH: B1 VH with Y51L, G56Y
# VL: B1 VL
# notes: as for B1
# B19: 320-192 (antibody, human IgG1, name in Kabat numbering, V domains shown)
# VH: B1 VH with Y51L
# VL: B1 VL with T23A
# notes: human IgG1, lambda
# B20: 320-210 (antibody, human IgG1, name in Kabat numbering, V domains shown)
# VH: B1 VH with Y51L
# VL: B1 VL with S25Q
# notes: human IgG1, lambda
# B21: 320-206 (antibody, human IgG1, name in Kabat numbering, V domains shown)
# VH: B1 VH with Y51L
# VL: B1 VL with S24L
# notes: human IgG1, lambda
# B22: 320-217 (antibody, human IgG1, name in Kabat numbering, V domains shown)
# VH: B1 VH with Y51L
# VL: B1 VL with S26A
# notes: human IgG1, lambda
# B23: 320-196 (antibody, human IgG1, name in Kabat numbering, V domains shown)
# VH: B1 VH with Y51L
# VL: B1 VL with T23H
# notes: human IgG1, lambda
# B24: 320-204 (antibody, human IgG1, name in Kabat numbering, V domains shown)
# VH: B1 VH with Y51L
# VL: B1 VL with S24H
# notes: human IgG1, lambda
# B25: 320-208 (antibody, human IgG1, name in Kabat numbering, V domains shown)
# VH: B1 VH with Y51L
# VL: B1 VL with S24Y
# notes: human IgG1, lambda
# B26: 320-222 (antibody, human IgG1, name in Kabat numbering, V domains shown)
# VH: B1 VH with Y51L
# VL: B1 VL with S26L
# notes: human IgG1, lambda
# B27: 320-200 (antibody, human IgG1, name in Kabat numbering, V domains shown)
# VH: B1 VH with Y51L
# VL: B1 VL with T23Y
# notes: human IgG1, lambda
# B28: 320-215 (antibody, human IgG1, name in Kabat numbering, V domains shown)
# VH: B1 VH with Y51L
# VL: B1 VL with S25W
# notes: human IgG1, lambda
# B29: 320-212 (antibody, human IgG1, name in Kabat numbering, V domains shown)
# VH: B1 VH with Y51L
# VL: B1 VL with S25H
# notes: human IgG1, lambda
# B30: 320-195 (antibody, human IgG1, name in Kabat numbering, V domains shown)
# VH: B1 VH with Y51L
# VL: B1 VL with T23D
# notes: human IgG1, lambda
# B31: 320-214 (antibody, human IgG1, name in Kabat numbering, V domains shown)
# VH: B1 VH with Y51L
# VL: B1 VL with S25L
# notes: human IgG1, lambda
# B32: 320-216 (antibody, human IgG1, name in Kabat numbering, V domains shown)
# VH: B1 VH with Y51L
# VL: B1 VL with S25Y
# notes: human IgG1, lambda
# B33: 320-220 (antibody, human IgG1, name in Kabat numbering, V domains shown)
# VH: B1 VH with Y51L
# VL: B1 VL with S26H
# notes: human IgG1, lambda
# Target: T1, human TL1A extracellular domain with …
# Assay: SPR Run 7, antibody on Protein A, TL1A 5 ug/mL, timepoint 44
# Outline: (§1)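 The capture level was the response change at the end of loading, which varied by run. Antigen response was read before dissociation ended, double-referenced against a reference flow cell and a buffer blank.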
row,TL1A Binding Level (Early) [RU],Binder
1,83,B1
2,120,B2
3,46,B3
4,79,B4
5,67,B5
6,140,B6
7,98,B7
8,121,B8
9,96,B9
10,67,B10
11,70,B11
12,90,B12
13,43,B13
14,98,B14
15,79,B15
16,115,B16
17,78,B17
18,51,B18

# Target: T1, human TL1A extracellular domain with …
# Assay: SPR Run 7, antibody on Protein A, TL1A 5 ug/mL, timepoint 220
# Outline: as §1
row,TL1A Binding Level (Late) [RU],Binder
1,77,B1
2,110,B2
3,41,B3
4,72,B4
5,62,B5
6,130,B6
7,90,B7
8,110,B8
9,86,B9
10,52,B10
11,65,B11
12,83,B12
13,12,B13
14,90,B14
15,73,B15
16,107,B16
17,72,B17
18,47,B18

# Target: T2, human TL1A extracellular domain with …
# Assay: SPR run 2; supernatant on Protein A; TL1A 10 ug/mL; timepoint 44
# Source text: (§2) 1.5. Antibody expression and antigen binding as determined by SPR. Using a CM5 sensor chip (GE Healthcare) Protein A (Pierce) was coupled to the chip surface using an amine coupling kit (GE Healthcare). Protein A was coupled on flow cell 1 and 2 (or alternatively 3 and 4) using a BIACORE® T200. […] The amount of supernatant or purified protein (as well as the concentration) injected during the capture stage varied between runs and is specified in the header of the Tables 3-11. At the end of injection of the supernatant or purified antibody the change in response units was measured. This value was reported as Capture Level in Tables 3-11. […] The response units were measured prior to the end of the dissociation phase. […] The sensorgrams were double referenced (flow cell 2 is subtracted from flow cell 1 and a buffer blank). As there were a large number of antibody variants to screen, these were screened across different runs (Tables 3-11). […] A summary of the conditions used in each run is below:
# (§3) 2.1. […] In some experiment the antibodies were purified using Protein A chromatography (See 1.4) and purified antibodies were used in BIACORE® (GE Healthcare) experiments.
row,TL1A Binding Level (Early) [RU],Binder
1,238,B19
2,225,B20
3,257,B21
4,258,B22
5,250,B23
6,193,B24
7,222,B25
8,156,B26
9,251,B27
10,220,B28
11,226,B29
12,249,B30
13,221,B31
14,171,B32
15,253,B33

# Target: T2, human TL1A extracellular domain with …
# Assay: SPR run 2; supernatant on Protein A; TL1A 10 ug/mL; timepoint 220
# Source text: as §2, §3
row,TL1A Binding Level (Late) [RU],Binder
1,218,B19
2,202,B20
3,235,B21
4,235,B22
5,228,B23
6,155,B24
7,199,B25
8,96,B26
9,231,B27
10,199,B28
11,205,B29
12,227,B30
13,196,B31
14,147,B32
15,230,B33
